Measurements as given in publication PMC2195629.

Molecular target: Glycocalicin, the soluble extracellular portion of human GP Ibα (human) (UniProt P07359)
Experiment: cell adhesion assay

Sequence of UniProt P07359 (P07359 17-531): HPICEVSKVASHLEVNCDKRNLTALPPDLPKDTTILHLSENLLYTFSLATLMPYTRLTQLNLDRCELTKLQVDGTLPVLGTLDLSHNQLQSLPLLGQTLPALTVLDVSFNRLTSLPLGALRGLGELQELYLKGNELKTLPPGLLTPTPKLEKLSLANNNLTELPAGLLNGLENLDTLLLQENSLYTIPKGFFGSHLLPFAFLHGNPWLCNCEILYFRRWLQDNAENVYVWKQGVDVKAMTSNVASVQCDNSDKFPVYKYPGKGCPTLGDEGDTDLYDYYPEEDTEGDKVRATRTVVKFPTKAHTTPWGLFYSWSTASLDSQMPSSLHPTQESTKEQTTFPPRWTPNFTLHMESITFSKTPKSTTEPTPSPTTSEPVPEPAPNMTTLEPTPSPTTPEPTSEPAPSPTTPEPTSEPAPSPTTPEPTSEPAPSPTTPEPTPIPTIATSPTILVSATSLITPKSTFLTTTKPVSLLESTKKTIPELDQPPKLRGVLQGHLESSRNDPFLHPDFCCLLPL

fold adhesion over untransfected CHO cells: 5 fold
Substance: phosphatidylinositol glycan–linked form of P-selectin on CHO cells (CHO-P) (from UniProt P16109 42-830) (receptor)
